According to patent publication US9625458:
Where a chain is given by its changes, count along the chain named. Numbers in names are those of the source.

B1: dipeptide BP T44C conjugated to NBD (receptor, E. coli, not shown: small tags and cut ends)
chain: MKTLVYCSEGSPEGFNPQLFTSGTTYDASSVPLYNRLVEFKIGTCEVIPGLAEKWEVSEDGKTYTFHLRKGVKWHDNKEFKPTRELNADDVVFSFDRQKNAQNPYHKVSGGSYEYFEGMGLPELISEVKKVDDNTVQFVLTRPEAPFLADLAMDFASILSKEYADAMMKAGTPEKLDLNPIGTGPFQLQQYQKDSRIRYKAFDGYWGTKPQIDTLVFSITPDASVRYAKLQKNECQVMPYPNPADIARMKQDKSINLMEMPGLNVGYLSYNVQKKPLDDVKVRQALTYAVNKDAIIKAVYQGAGVSAKNLIPPTMWGYNDDVQDYTYDPEKAKALLKEAGLEKGFSIDLWAMPVQRPYNPNARRMAEMIQADWAKVGVQAKIVTYEWGEYLKRAKDGEHQTVMMGWTGDNGDPDNFFATLFSCAASEQGSNYSKWCYKPFEDLIQPARATDDHNKRVELYKQAQVVMHDQAPALIIAHSTVFEPVRKEVKGYVVDPLGKHHFENVSIE
modifications: NBD (N,N'-dimethyl-N-(iodoacetyl)-N'-(7-nitrobenz-2-oxa-1,3-diazol-4-yl)ethylenediamide) conjugated to the thiol of Cys 44
B2: dipeptide BP K394C conjugated to fluorescein (receptor, E. coli, not shown: small tags and cut ends)
chain: B1 chain with C45T, K395C
modifications: fluorescein (5-iodoacetamidofluorescein) conjugated to the thiol of Cys 394

Tests used:
Gly-Leu dipeptide [1] = assay: fluorimetric titration of the fluorophore conjugate with ligand; low end of the range over 21 conjugates
Gly-Leu dipeptide [2] = assay: fluorimetric titration of the fluorophore conjugate with ligand; high end of the range over 21 conjugates

| Binder | Kd (Gly-Leu dipeptide [1]) | Kd (Gly-Leu dipeptide [2]) |
| --- | --- | --- |
| B1 | 0.006 µM | – |
| B2 | – | 93 µM |
